{"source": "paper PMC5499865", "about": "(Nucleic Acids Research, 2017)", "binders": {"B1": {"name": "GST-MYB15 (natural protein, Arabidopsis thaliana, UniProt Q9LTC4 1-285, looked up)", "chain": "MGRAPCCEKMGLKRGPWTPEEDQILVSFILNHGHSNWRALPKQAGLLRCGKSCRLRWMNYLKPDIKRGNFTKEEEDAIISLHQILGNRWSAIAAKLPGRTDNEIKNVWHTHLKKRLEDYQPAKPKTSNKKKGTKPKSESVITSSNSTRSESELADSSNPSGESLFSTSPSTSEVSSMTLISHDGYSNEINMDNKPGDISTIDQECVSFETFGADIDESFWKETLYSQDEHNYVSNDLEVAGLVEIQQEFQNLGSANNEMIFDSEMDFWFDVLARTGGEQDLLAGL"}}, "biological_target": "His-MPK6 (Arabidopsis thaliana, UniProt Q39026 1-395)", "sequence (Q39026 whole entry)": "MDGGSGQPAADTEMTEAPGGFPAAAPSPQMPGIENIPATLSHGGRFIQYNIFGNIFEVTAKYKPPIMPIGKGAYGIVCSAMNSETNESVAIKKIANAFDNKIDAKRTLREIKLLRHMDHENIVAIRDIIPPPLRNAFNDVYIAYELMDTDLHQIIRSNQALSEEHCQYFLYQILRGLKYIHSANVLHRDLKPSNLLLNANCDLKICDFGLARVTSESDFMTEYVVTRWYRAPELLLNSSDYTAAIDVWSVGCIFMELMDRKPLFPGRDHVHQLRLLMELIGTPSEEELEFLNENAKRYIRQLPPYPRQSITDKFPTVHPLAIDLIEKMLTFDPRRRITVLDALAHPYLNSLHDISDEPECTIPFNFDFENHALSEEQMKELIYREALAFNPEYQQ", "assay": "pull-down"}
{"binder": "B1", "values": [{"measurement": "binding result", "value": "binds"}]}
